Where no end group is shown, it is not given here. The star is where a group is joined. FITC = O=C1OC2(c3ccc(O)cc3Oc3cc(O)ccc32)c2ccc(NC(=S)*)cc21; Ahx = NCCCCCC(=O)O
Tests used:
[1] = biological target: T1, EGFR expressed by A-431 cells (human, UniProt P00533 25-1210); assay: confocal fluorescence microscopy of A-431 cells with 100 µM FITC-labeled peptide
T1 construct: whole, on cells; also called EGFR expressed by cells
Procedure: A-431 cells were inoculated in a glass bottom dish to be 20×10⁴ cells/dish and MCF7 cells were inoculated in a glass bottom dish to be 75×10⁴ cells/dish, and cultured at 37° C. in the condition of CO₂ for 24 hours. After culturing each kind of the cells for a specified time, EGF was added to have a concentration of 100 ng/mL and the mixture was cultured for 6 days. Thereafter, the culture solution in the dish was removed and washed with 1000 μL of a growth medium at 37° C. ten times. […] A staining fluid was removed and washed with 1 mL of a growth medium at 37° C. three times and thereto was finally added 1 mL of the medium. For observation, fluorescent observation was carried out by irradiating an exciting light laser with a wavelength of 488 nm using a confocal microscope (Leica SP2).

[2] = biological target: T2, recombinant human EGFR/Fc chimera (rhEGFR, R&D Systems) (human, UniProt P00533 25-645); assay: phage binding to plate-coated protein, titer ratio
T2 construct: Bought reagent; Coated on the plate at 1 ug/well; also called genetically modified EGFR protein; not shown: human IgG1 Fc moiety of the chimera
Procedure: After removal of the blocking buffer, the wells were washed with 200 μl of 0.5% TBST being the washing solution three times and thereto was finally added 100 μl of 0.5% TBST. […] In the reaction, the mixture was gently shaken at room temperature for 1 hour. The reaction solution was removed and the wells were washed with 200 μl of 0.5% TBST ten times, 100 μl of 0.2 M glycine-HCl (pH 2.2) was added to the wells and stirred by pipetting, thereafter gently shaking at room temperature for 10 minutes. The eluate was collected to a microtube from the wells and added with 15 μl of 1 M Tris-HCl (pH 9.1) to be neutralized and a target binding phage solution was thus obtained. The binding ability of the collected phage was examined by a measurement of a titer.
A rhEGFR that is a target protein, a recombinant human ErbB2(rhErbB2, PROSPEC) as a HER2 protein belonging to the ErbB family same as an EGFR, are combinant human IGF-1R, CF(rhIGF-1R, R&D Systems) as an IGF-1R protein that is one of extracellular proteins were added to a 96-well microplate to be 1 μg/well, and stood still at 4° C. overnight to be thus formed into a solid phase. A protein solution was removed, 300 μl of a blocking buffer was added and the mixture was incubated at 37° C. for 1 hour to thus block the wells. After removal of the blocking buffer, the wells were washed three times with 200 μl of 0.5% TBST washing solution, and finally 100 μl of 0.5% TBST was added thereto. […] In the reaction, the mixture was gently shaken at room temperature for 1 hour. The reaction solution was removed, the wells were washed with 200 μl of 0.5% TEST ten times, and 100 μl of 0.2 M glycine-HCl (pH 2.2) was then added to the wells and stirred by pipetting, thereafter gently shaking at room temperature for 10 minutes. The eluate was collected to a microtube from the wells and added with 15 μl of 1 M Tris-HCl (pH 9.1) to be neutralized and a target binding phage solution was thus obtained.

[3] = biological target: T1, EGFR expressed by A-431 cells; assay: phage binding to A-431 cells at 4 °C, titer ratio corrected for the number of collected cells
Procedure: A-431 cells were inoculated in a 6-well culture plate at 40×10⁴ cells/well and cultured at 37° C. in the condition of 5% CO₂ overnight. The plate was incubated at 4° C. for 30 minutes and a medium in each well was removed, and treated by washing with 1 mL of 1% BSA/PBS twice. […] After the reaction, the reaction solution was removed and washed with 1 mL of 1% BSA/PBS ten times to remove non-binding phages. Thereto was added 100 μl of a 0.05% trypsin/0.53 mM EDTA solution and the reaction solution was incubated at 37° C. for about 10 minutes and added with 900 μl of a growth medium to prepare a collected phage solution. A titer of each collected phage solution was measured.

[4] = biological target: T2, recombinant human EGFR/Fc chimera …; assay: substituted phage binding to plate-coated rhEGFR, titer ratio
Procedure: A rhEGFR that is a target protein was added to a 96-well microplate to be 1 μg/well, and stood still at 4° C. overnight to be thus formed into a solid phase. A protein solution was removed, 300 μl of a blocking buffer (5 mg/mL BSA/TBS) was added and the mixture was incubated at 37° C. for 1 hour to thus block the wells. After removal of the blocking buffer, the wells were washed with 200 μl of 0.5% TBST (0.5% Tween20/TBS) being the washing solution three times and thereto was finally added 100 μl of 0.5% TEST. An amplification phage solution was added to the above described wells to have 1×10¹⁰ PFU and mixed by pipetting. In the reaction, the mixture was gently shaken at room temperature for 1 hour. The reaction solution was removed and the wells were washed with 200 μl of 0.5% TBST ten times, 100 μl of 0.2 M glycine-HCl (pH 2.2) was then added to the wells and stirred by pipetting, thereafter gently shaking at room temperature for 10 minutes. The eluate was collected to a microtube from the wells and added with 15 μl of 1 M Tris-HCl (pH 9.1) to be neutralized and a target binding phage solution was thus obtained. The binding ability of the collected phage was examined by a measurement of a titer.

## {FITC-Ahx}-WHLSDLWQNAWH [Pep055-F (FITC-labeled Pep055)]
[1]
  binding result: binds

## FHDWLPEVSPPD (peptide, not shown: large carriers, tested as phage particles) [I-1012 phage (peptide displayed phage from the D12 library)]
[2]
  fold binding to rhEGFR over binding to BSA: 3100 times
  fold binding to rhEGFR over binding to rhErbB2: 1580 times
  fold binding to rhEGFR over binding to rhIGF-1R: 4340 times
  fold binding to rhEGFR over binding to rhIgG1: 3420 times

## LHQSEWMYVDIH (peptide, not shown: large carriers, tested as phage particles) [I-1015 phage (peptide displayed phage from the D12 library)]
[2]
  fold binding to rhEGFR over binding to BSA: 14000 times
  fold binding to rhEGFR over binding to rhErbB2: 4740 times
  fold binding to rhEGFR over binding to rhIGF-1R: 7710 times
  fold binding to rhEGFR over binding to rhIgG1: 19000 times

B1: I-1010 phage (peptide displayed phage from the D12 library) (peptide, not shown: large carriers)
peptide: WHLSDLWQNAWH
notes: tested as phage particles, 1x10^10 PFU per well
[2]
  fold binding to rhEGFR over binding to BSA: 3810 times
  fold binding to rhEGFR over binding to rhErbB2: 1760 times
  fold binding to rhEGFR over binding to rhIGF-1R: 2830 times
  fold binding to rhEGFR over binding to rhIgG1: 1660 times
[3]
  fold titer ratio over that of the M13KE phage: 45 times

B2: I-1010 phage in which the 1st W was substituted with F and the 8th Q was substituted with A (peptide, not shown: large carriers)
peptide: FHLSDLWANAWH
notes: Phage with two substituted amino acids; also called W1F/Q8A
[4]
  binding result: binds

## WHMSDLWQNAWH (peptide, not shown: large carriers, also called L3M) [I-1010 amino acid substituted phage, 3rd L substituted with M]
[4]
  binding result: binds

## WHLSDLYQNAWH (peptide, not shown: large carriers, also called W7Y) [I-1010 amino acid substituted phage, 7th W substituted with Y]
[4]
  binding result: binds

## WHLSDLFQNAWH (peptide, not shown: large carriers, also called W7F) [I-1010 amino acid substituted phage, 7th W substituted with F]
[4]
  binding result: binds

## WHISDLWQNAWH (peptide, not shown: large carriers, also called L3I) [I-1010 amino acid substituted phage, 3rd L substituted with I]
[4]
  binding result: binds

## WHVSDLWQNAWH (peptide, not shown: large carriers, also called L3V) [I-1010 amino acid substituted phage, 3rd L substituted with V]
[4]
  binding result: binds

B3: I-1010 phage in which the 3rd L was substituted with M and the 8th Q was substituted with A (peptide, not shown: large carriers)
peptide: WHMSDLWANAWH
notes: Phage with two substituted amino acids; also called L3M/Q8A
[4]
  binding result: binds

## FHLSDLWQNAWH (peptide, not shown: large carriers, also called W1F) [I-1010 amino acid substituted phage, 1st W substituted with F]
[4]
  binding result: binds

Reference: patent US20150337012A1 (HOYA, published 2015)
